# Reference: patent US20160200782A1
# What was measured:
# Test in all cases: cell-based or functional assay
# [1] = biological target: Ab1(Y253F)(h) (human) (UniProt P00519)
# [2] = biological target: Ab1(h) (human) (UniProt P00519)
# [3] = biological target: CDK5/p25(h) (human) (UniProt Q00535)
# [4] = biological target: CK1γ1(h) (human) (UniProt Q9HCP0)
# [5] = biological target: CK1γ2(h) (human) (UniProt P78368)
# [6] = biological target: CK1γ3(h) (human) (UniProt Q9Y6M4)
# [7] = biological target: CK2α2(h) (human) (UniProt P19784)
# [8] = biological target: CLK2(h) (human) (UniProt P49760)
# [9] = biological target: CaMKIIδ(h) (human) (UniProt Q13557)
# [10] = biological target: DAPK2(h) (human) (UniProt Q9UIK4)
# [11] = biological target: DMPK(h) (human) (UniProt Q09013)
# [12] = biological target: EphA2(h) (human) (UniProt P29317)
# [13] = biological target: FGFR1(V561M)(h) (human) (UniProt P11362)
# [14] = biological target: FGFR2(N549H)(h) (human) (UniProt P21802)
# [15] = biological target: Fgr(h) (human) (UniProt P09769)
# [16] = biological target: Flt1(h) (human) (UniProt P17948)
# [17] = biological target: Fms(Y969C)(h) (human) (UniProt P07333)
# [18] = biological target: GRK5(h) (human) (UniProt P34947)
# [19] = biological target: Haspin(h) (human) (UniProt Q8TF76)
# [20] = biological target: Hck(h) (human) (UniProt P08631)
# [21] = biological target: IGF-1R(h) (human) (UniProt P08069)
# [22] = biological target: JNK1α1(h) (human) (UniProt P45983)
# [23] = biological target: MAPK1(h) (human) (UniProt P28482)
# [24] = biological target: MKK7β(h) (human) (UniProt O14733)
# [25] = biological target: Met(Y1248H)(h) (human) (UniProt P08581)
# [26] = biological target: NEK3(h) (human) (UniProt P51956)
# [27] = biological target: PAK3(h) (human) (UniProt O75914)
# [28] = biological target: PAK6(h) (human) (UniProt Q9NQU5)
# [29] = biological target: Pim-1(h) (human) (UniProt P11309)
# [30] = biological target: Plk1(h) (human) (UniProt P53350)
# [31] = biological target: Pyk2(h) (human) (UniProt Q14289)
# [32] = biological target: SAPK2b(h) (human) (UniProt Q15759)
# [33] = biological target: TAK1(h) (human) (UniProt O43318)
# [34] = biological target: TAO3(h) (human) (UniProt Q9H2K8)
# [35] = biological target: TLK2(h) (human) (UniProt Q86UE8)
# [36] = biological target: Tie2(R849W)(h) (human) (UniProt Q02763)
# [37] = biological target: VRK2(h) (human) (UniProt Q86Y07)
# [38] = biological target: Yes(h) (human) (UniProt P07947)
# [39] = biological target: eEF-2K(h) (human) (UniProt O00418)
# [40] = biological target: TrkA(h) (human) (UniProt P04629)
# Sequence of NEK3(h) (human) (P51956 whole entry): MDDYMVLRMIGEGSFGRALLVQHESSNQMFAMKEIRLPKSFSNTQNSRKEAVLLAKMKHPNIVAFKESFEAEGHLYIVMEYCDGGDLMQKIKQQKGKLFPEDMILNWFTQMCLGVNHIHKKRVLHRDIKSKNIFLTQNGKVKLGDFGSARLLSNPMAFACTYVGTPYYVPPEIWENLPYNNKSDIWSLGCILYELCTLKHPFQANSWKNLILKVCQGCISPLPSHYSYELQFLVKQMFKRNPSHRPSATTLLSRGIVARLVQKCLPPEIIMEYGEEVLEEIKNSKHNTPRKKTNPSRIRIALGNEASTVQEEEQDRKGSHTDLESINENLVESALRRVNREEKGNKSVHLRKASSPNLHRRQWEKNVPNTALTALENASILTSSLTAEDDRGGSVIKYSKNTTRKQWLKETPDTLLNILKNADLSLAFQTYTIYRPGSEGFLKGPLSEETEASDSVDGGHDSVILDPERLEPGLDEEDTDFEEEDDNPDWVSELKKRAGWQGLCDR
# Sequence of Flt1(h) (human) (P17948 781-1338 limits assumed): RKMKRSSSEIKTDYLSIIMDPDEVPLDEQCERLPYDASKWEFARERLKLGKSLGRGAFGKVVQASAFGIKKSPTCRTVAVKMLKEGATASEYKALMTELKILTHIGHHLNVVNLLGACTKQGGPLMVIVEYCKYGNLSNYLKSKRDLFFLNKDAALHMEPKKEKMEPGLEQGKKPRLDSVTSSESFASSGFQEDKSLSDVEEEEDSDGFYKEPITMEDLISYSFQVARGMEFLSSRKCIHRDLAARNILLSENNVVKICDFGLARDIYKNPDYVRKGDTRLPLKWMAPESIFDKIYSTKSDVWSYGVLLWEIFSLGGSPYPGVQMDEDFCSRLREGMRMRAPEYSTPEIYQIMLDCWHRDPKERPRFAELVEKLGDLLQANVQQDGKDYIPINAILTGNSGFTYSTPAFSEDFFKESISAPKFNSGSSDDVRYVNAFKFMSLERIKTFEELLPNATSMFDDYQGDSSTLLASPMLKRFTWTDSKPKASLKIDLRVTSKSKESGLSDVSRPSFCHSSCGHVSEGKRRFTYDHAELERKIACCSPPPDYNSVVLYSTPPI
# Sequence of Haspin(h) (human) (Q8TF76 471-798 limits assumed): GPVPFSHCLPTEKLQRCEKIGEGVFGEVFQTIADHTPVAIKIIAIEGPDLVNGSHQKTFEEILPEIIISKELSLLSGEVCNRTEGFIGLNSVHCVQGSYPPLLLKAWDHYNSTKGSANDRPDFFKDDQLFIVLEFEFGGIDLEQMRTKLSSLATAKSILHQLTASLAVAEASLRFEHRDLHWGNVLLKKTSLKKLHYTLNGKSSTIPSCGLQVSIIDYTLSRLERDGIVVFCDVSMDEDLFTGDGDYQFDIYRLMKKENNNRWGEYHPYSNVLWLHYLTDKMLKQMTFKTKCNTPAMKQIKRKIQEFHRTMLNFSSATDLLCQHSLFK
# Sequence of CaMKIIδ(h) (human) (Q13557 whole entry, stated change not applied): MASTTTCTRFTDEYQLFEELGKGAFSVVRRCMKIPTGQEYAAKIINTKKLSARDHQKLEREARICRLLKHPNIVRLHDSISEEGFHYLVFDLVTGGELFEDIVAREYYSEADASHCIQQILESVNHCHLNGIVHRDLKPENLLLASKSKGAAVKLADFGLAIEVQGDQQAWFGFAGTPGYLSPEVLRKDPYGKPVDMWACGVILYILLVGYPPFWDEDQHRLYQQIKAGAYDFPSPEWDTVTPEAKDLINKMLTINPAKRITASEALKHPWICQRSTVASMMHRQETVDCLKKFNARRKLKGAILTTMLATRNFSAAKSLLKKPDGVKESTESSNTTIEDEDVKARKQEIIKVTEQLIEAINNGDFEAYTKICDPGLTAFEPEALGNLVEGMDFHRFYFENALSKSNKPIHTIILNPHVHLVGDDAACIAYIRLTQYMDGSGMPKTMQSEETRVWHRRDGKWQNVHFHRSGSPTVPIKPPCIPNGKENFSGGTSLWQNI
# Sequence of Hck(h) (human) (P08631 251-518 limits assumed): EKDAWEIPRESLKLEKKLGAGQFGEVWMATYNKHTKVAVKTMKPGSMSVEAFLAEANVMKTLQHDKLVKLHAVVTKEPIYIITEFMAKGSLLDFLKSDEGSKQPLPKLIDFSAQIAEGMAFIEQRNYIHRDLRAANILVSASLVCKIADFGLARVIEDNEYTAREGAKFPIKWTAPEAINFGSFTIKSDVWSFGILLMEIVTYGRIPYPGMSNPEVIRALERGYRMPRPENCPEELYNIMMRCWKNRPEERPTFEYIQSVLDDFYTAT
# Sequence of TLK2(h) (human) (Q86UE8 whole entry): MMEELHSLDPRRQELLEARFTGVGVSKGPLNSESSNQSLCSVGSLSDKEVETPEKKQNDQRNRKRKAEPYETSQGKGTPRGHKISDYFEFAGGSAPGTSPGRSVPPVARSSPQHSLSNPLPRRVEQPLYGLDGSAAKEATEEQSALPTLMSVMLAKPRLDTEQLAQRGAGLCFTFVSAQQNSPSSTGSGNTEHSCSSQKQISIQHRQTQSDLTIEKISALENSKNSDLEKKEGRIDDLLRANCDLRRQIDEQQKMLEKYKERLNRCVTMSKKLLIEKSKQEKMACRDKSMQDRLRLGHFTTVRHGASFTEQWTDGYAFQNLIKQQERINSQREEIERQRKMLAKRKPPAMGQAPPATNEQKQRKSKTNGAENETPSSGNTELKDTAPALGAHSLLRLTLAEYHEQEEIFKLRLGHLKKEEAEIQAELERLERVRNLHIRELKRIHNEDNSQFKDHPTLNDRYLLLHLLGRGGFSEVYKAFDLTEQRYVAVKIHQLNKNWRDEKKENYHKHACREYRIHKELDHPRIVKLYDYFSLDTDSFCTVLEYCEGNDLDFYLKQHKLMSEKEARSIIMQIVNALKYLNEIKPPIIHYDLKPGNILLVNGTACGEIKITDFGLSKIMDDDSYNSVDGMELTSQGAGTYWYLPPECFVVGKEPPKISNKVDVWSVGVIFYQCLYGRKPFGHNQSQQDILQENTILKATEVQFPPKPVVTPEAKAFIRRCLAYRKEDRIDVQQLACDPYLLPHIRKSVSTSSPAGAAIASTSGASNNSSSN
# Sequence of TAO3(h) (human) (Q9H2K8 1-315 limits assumed): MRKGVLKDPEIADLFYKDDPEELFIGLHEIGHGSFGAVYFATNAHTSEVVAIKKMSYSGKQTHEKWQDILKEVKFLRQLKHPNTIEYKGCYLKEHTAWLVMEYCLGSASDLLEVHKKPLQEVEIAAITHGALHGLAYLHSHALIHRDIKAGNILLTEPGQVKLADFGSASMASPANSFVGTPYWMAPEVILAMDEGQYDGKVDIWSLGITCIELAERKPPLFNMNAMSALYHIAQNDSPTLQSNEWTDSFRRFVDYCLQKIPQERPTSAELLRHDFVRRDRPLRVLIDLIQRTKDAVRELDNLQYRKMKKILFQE
# Sequence of Ab1(h) (human) (P00519 27-1130 limits assumed): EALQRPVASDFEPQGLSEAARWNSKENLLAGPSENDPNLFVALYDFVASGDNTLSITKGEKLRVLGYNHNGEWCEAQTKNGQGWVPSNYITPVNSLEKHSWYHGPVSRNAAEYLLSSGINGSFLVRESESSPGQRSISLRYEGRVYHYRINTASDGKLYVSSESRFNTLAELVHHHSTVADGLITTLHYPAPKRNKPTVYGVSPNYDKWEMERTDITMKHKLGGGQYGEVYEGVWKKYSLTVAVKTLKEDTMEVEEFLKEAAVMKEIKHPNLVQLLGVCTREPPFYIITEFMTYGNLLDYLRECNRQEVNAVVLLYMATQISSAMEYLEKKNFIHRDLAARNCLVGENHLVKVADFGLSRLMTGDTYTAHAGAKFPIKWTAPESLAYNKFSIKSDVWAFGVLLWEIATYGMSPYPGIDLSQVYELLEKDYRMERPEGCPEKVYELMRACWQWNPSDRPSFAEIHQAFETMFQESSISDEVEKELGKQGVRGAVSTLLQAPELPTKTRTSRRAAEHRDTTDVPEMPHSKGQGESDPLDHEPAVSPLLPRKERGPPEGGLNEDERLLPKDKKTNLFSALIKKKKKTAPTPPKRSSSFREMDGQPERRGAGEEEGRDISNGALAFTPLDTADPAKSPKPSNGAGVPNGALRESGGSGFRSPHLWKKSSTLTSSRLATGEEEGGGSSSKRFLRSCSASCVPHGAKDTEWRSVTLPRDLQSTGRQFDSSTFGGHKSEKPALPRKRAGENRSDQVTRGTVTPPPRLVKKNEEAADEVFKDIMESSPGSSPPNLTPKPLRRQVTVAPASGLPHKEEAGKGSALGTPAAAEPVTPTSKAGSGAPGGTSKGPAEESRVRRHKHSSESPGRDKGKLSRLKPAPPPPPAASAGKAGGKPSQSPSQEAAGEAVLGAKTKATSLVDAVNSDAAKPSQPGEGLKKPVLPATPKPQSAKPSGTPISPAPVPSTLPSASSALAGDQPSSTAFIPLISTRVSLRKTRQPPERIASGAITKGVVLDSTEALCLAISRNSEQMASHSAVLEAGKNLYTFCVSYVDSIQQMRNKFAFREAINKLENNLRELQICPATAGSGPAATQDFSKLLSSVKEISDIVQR
# Sequence of Pim-1(h) (human) (P11309 whole entry): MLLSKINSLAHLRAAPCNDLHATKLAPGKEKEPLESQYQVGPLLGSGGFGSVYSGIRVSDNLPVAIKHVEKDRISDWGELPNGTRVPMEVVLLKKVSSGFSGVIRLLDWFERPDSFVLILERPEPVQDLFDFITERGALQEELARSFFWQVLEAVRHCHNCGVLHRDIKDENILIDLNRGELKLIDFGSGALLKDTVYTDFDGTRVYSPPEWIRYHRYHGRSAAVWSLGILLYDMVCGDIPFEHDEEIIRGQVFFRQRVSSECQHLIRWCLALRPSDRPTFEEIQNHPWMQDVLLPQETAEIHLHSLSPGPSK
# Sequence of Ab1(Y253F)(h) (human) (P00519 27-1130 Y253F limits assumed): as the sequence (P00519 27-1130 limits assumed) above, with Y227F counted along it
Substance,% activity [1],% activity [2],% activity [3],% activity [4],% activity [5],% activity [9],% activity [10],% activity [11],% activity [16],% activity [19],% activity [20],% activity [25],% activity [26],% activity [29],% activity [31],% activity [32],% activity [34],% activity [35],% activity [37],% activity [39],also measured
MMI-0200 (peptide),102%,107%,97%,98%,104%,2%,92%,66%,96%,71%,107%,153%,100%,18%,127%,95%,102%,129%,109%,136%,% activity [6]: 96%; % activity [7]: 88%; % activity [8]: 97%; % activity [12]: 95%; % activity [13]: 72%; % activity [14]: 104%; % activity [15]: 71%; % activity [17]: 88%; % activity [18]: 135%; % activity [21]: 49%; % activity [22]: 106%; % activity [23]: 97%; % activity [24]: 117%; % activity [27]: 50%; % activity [28]: 105%; % activity [30]: 128%; % activity [33]: 124%; % activity [36]: 89%; % activity [38]: 93%
MMI-0100 (peptide),104%,136%,114%,110%,119%,89%,41%,60%,109%,127%,354%,88%,100%,44%,113%,99%,45%,113%,112%,113%,% activity [6]: 105%; % activity [7]: 104%; % activity [8]: 88%; % activity [12]: 58%; % activity [13]: 108%; % activity [14]: 95%; % activity [15]: 54%; % activity [17]: 126%; % activity [18]: 117%; % activity [21]: 102%; % activity [22]: 91%; % activity [23]: 108%; % activity [24]: 137%; % activity [28]: 121%; % activity [30]: 109%; % activity [33]: 116%; % activity [36]: 102%; % activity [40]: 74%; % activity [38]: 49%
MMI-0500 (peptide),29%,16%,66%,–,–,1%,3%,12%,27%,25%,78%,126%,20%,0%,46%,42%,12%,133%,169%,43%,% activity [40]: 24%
